# Measurements taken from patent US20240410900A1 (Hoffmann-La Roche, published 2024).
# Key:
# [1] = target: T1, anti-P-Selectin antibody (IgG4 subclass with mutations S228P/L235E); test: ELISA assay C, tracer FcγRI-Dig, target 3 ng/mL
# T1 construct: Positions are EU numbers; also called sample 4; antibody 4
# [2] = target: T2, anti-VEGF/ANG2 antibody (IgG1 subclass with mutations P329G/L234A/L235A); test: ELISA assay C, tracer FcγRI-Dig, target 3 ng/mL
# T2 construct: Positions are EU numbers; also called sample 2; antibody 2
# [3] = target: T3, anti-IGF-1R antibody (IgG1 subclass with mutations I253A/H310A/H435A); test: ELISA assay C, tracer FcγRI-Dig, target 3 ng/mL
# T3 construct: Positions are EU numbers; also called sample 3; antibody 3
# [4] = target: T4, anti-VEGF/ANG2 antibody (IgG1 subclass with mutations P329G/L234A/L235A/I253A/H310A/H435A); test: ELISA assay C, tracer FcγRI-Dig, target 3 ng/mL
# T4 construct: Format of the bispecific antibody not described; Positions are EU numbers, not positions on the UniProt entry; also called sample 1; antibody 1
# [5] = target: T5, anti-VEGF/ANG2 antibody (wild-type IgG1 subclass) (UniProt P01857-1 1-330 = IgG part); test: ELISA assay C, tracer FcγRI-Dig, target 3 ng/mL
# T5 construct: also called sample 5; antibody 5
# [6] = target: T1, anti-P-Selectin antibody (IgG4 subclass …); test: ELISA assay B, tracer M1.7.10-Dig, target 2 ng/mL
# Description: (§1) Biotinylated anti-PG Fc-region antibody or biotinylated anti-AAA Fc-region antibody, respectively, was bound to the wells of a streptavidin-coated multi-well plate (SA-MTP) to produce a capture plate. Excess of unbound antibody was removed by washing. Sample/standard antibodies spiked in human and cynomolgus monkey serum (10% final concentration) was added to wells of the SA-MTP multi-well plate coated with the capture plate and incubated for 1 hour at room temperature. After washing, the wells were incubated with digoxygenylated anti-human kappa antibody M1.7.10 (see e.g. WO 2011/048043, incorporated herein by reference). After washing the bound digoxygenylated anti-human kappa antibody complex was incubated with a horseradish peroxidase (HRP) labelled anti-digoxygenin antibody. After another washing step, an ABTS solution was added to the wells and incubated. The product of the color reaction was measured by Elisa reader at 405 nm wavelength (reference wavelength: 490 nm). Absorbance values of each sample or standard were determined in triplicates.
# [7] = target: T2, anti-VEGF/ANG2 antibody (IgG1 subclass …); test: ELISA assay B, tracer M1.7.10-Dig, target 2 ng/mL
# Description: as §1
# [8] = target: T3, anti-IGF-1R antibody (IgG1 subclass …); test: ELISA assay B, tracer M1.7.10-Dig, target 2 ng/mL
# Description: as §1
# [9] = target: T4, anti-VEGF/ANG2 antibody (IgG1 subclass …); test: ELISA assay B, tracer M1.7.10-Dig, target 2 ng/mL
# Description: as §1
# [10] = target: T1, anti-P-Selectin antibody (IgG4 subclass …); test: ELISA assay B, tracer M1.7.10-Dig, target 25 ng/mL
# Description: as §1
# [11] = target: T2, anti-VEGF/ANG2 antibody (IgG1 subclass …); test: ELISA assay B, tracer M1.7.10-Dig, target 25 ng/mL
# Description: as §1
# [12] = target: T3, anti-IGF-1R antibody (IgG1 subclass …); test: ELISA assay B, tracer M1.7.10-Dig, target 25 ng/mL
# Description: as §1
# [13] = target: T4, anti-VEGF/ANG2 antibody (IgG1 subclass …); test: ELISA assay B, tracer M1.7.10-Dig, target 25 ng/mL
# Description: as §1
# [14] = target: T5, anti-VEGF/ANG2 antibody (wild-type IgG1 …); test: ELISA assay B, tracer M1.7.10-Dig, target 25 ng/mL
# Description: as §1
# [15] = target: T1, anti-P-Selectin antibody (IgG4 subclass …); test: ELISA assay B, tracer M1.7.10-Dig, target 3 ng/mL
# Description: as §1
# [16] = target: T2, anti-VEGF/ANG2 antibody (IgG1 subclass …); test: ELISA assay B, tracer M1.7.10-Dig, target 3 ng/mL
# Description: as §1
# [17] = target: T3, anti-IGF-1R antibody (IgG1 subclass …); test: ELISA assay B, tracer M1.7.10-Dig, target 3 ng/mL
# Description: as §1
# [18] = target: T4, anti-VEGF/ANG2 antibody (IgG1 subclass …); test: ELISA assay B, tracer M1.7.10-Dig, target 3 ng/mL
# Description: as §1
# [19] = target: T5, anti-VEGF/ANG2 antibody (wild-type IgG1 …); test: ELISA assay B, tracer M1.7.10-Dig, target 3 ng/mL
# Description: as §1
# [20] = target: T1, anti-P-Selectin antibody (IgG4 subclass …); test: ELISA assay C, tracer FcγRI-Dig, target 13 ng/mL
# [21] = target: T2, anti-VEGF/ANG2 antibody (IgG1 subclass …); test: ELISA assay C, tracer FcγRI-Dig, target 13 ng/mL
# [22] = target: T3, anti-IGF-1R antibody (IgG1 subclass …); test: ELISA assay C, tracer FcγRI-Dig, target 13 ng/mL
# [23] = target: T4, anti-VEGF/ANG2 antibody (IgG1 subclass …); test: ELISA assay C, tracer FcγRI-Dig, target 13 ng/mL
# [24] = target: T5, anti-VEGF/ANG2 antibody (wild-type IgG1 …); test: ELISA assay C, tracer FcγRI-Dig, target 13 ng/mL
signal [OD405 nm] [1] [OD405 nm],signal [OD405 nm] [2] [OD405 nm],signal [OD405 nm] [3] [OD405 nm],signal [OD405 nm] [4] [OD405 nm],signal [OD405 nm] [5] [OD405 nm],signal [OD405 nm] [6] [OD405 nm],signal [OD405 nm] [7] [OD405 nm],signal [OD405 nm] [8] [OD405 nm],signal [OD405 nm] [9] [OD405 nm],signal [OD405 nm] [10] [OD405 nm],signal [OD405 nm] [11] [OD405 nm],signal [OD405 nm] [12] [OD405 nm],signal [OD405 nm] [13] [OD405 nm],signal [OD405 nm] [14] [OD405 nm],signal [OD405 nm] [15] [OD405 nm],signal [OD405 nm] [16] [OD405 nm],signal [OD405 nm] [17] [OD405 nm],signal [OD405 nm] [18] [OD405 nm],signal [OD405 nm] [19] [OD405 nm],signal [OD405 nm] [20] [OD405 nm],Binder,also measured
0.05,0.068,0.083,0.066,0.069,0.032,0.041,1.48,0.041,0.048,0.092,2.89,0.044,0.047,0.039,0.044,2.26,0.039,0.037,0.052,"anti-AAA variant Fc-region antibody M1.6.22 (antibody, V domains shown, Murine variable domains; also called M1.6.22-Bi) VH: EVQLVESGGDLVKPGGSLKLSCAASGFTFSSYGMSWVRQTPDKRLEWVATISSGGSYIYYPDSVKGRFTISRDNAKNTLYLQMSSLKSEDTAMYYCARLGMITTGYAMDYWGQGTSVTVSS VL: DVLMTQTPLSLPVSLGDQASISCRSSQTIVHSTGHTYLEWFLQKPGQSPKLLIYKVSNRFSGVPDRFSGSGSGTDFTLKISRVEAEDLGVYYCFQGSHVPYTFGGGTKLEIK",signal [OD405 nm] [21]: 0.061 OD405 nm; signal [OD405 nm] [22]: 0.175 OD405 nm; signal [OD405 nm] [23]: 0.064 OD405 nm; signal [OD405 nm] [24]: 0.07 OD405 nm
1.19,1.22,1.21,1.16,1.19,0.049,0.125,0.047,0.036,0.047,0.213,0.046,0.035,0.043,0.05,0.165,0.047,0.036,0.044,1.16,"anti-PG variant Fc-region antibody M1.3.17 (antibody, V domains shown, Monomeric, bivalent full-length antibody with murine variable domains; Biotinylated when used as capture antibody; also called anti-PG antibody clone 1.3.17; M1.3.17-Bi) VH: EVKLLESGGGLVQPGGSLKLSCAASGIDFRRYWMNWVRQAPGKGLEWIGEIDPDSSTINYTPSLKDKFIISRDNAKNTMYLQMRKVRSEDTALYYCARPYDYGAWFAYWGQGTLVTVSA VL: QAVVTQESALTTSPGETVTLTCRSTTGAVTTSNYANWVQEKPDHLFTGLIGGTNKRAPGVPARFSGSLIGDKAALTITGAQTEDEAIYFCALWYSDHWVFGGGTKLTVL",signal [OD405 nm] [21]: 1.23 OD405 nm; signal [OD405 nm] [22]: 1.21 OD405 nm; signal [OD405 nm] [23]: 1.14 OD405 nm; signal [OD405 nm] [24]: 1.17 OD405 nm
0.053,0.057,0.077,0.094,0.053,0.033,1.73,0.047,0.049,0.04,3.16,0.048,0.047,0.041,0.031,2.51,0.046,0.04,0.033,0.066,"anti-PG variant Fc-region antibody M1.7.24 (monomeric, bivalent) (antibody, V domains shown, Full-length Y-shaped antibody with murine variable domains; Biotinylated when used as capture antibody; also called anti-PG antibody clone 1.7.24; M1.7.24-Bi) VH: EVKLLESGGGLVQPGGSLKLSCAASGFDFSRYWMNWVRQAPGKGLEWIGEITPDSSTINYTPSLKDKFIISRDNAKNTLYLQMIKVRSEDTALYYCVRPYDYGAWFASWGQGTLVTVSA VL: QAVVTQESALTTSPGETVTLTCRSSTGAVTTSNYANWVQEKPDHLFTGLIGGTNKRAPGVPARFSGSLIGDKAALTITGAQTEDEAIYFCALWYSNHWVFGGGTKLTVL",signal [OD405 nm] [21]: 0.06 OD405 nm; signal [OD405 nm] [22]: 0.058 OD405 nm; signal [OD405 nm] [23]: 0.085 OD405 nm; signal [OD405 nm] [24]: 0.057 OD405 nm
